# Patent US20140087995A1 (published 2014)
# Numbered stars: 1 amine (or outer) side, 2 acyl side, 3 side chain; on linkers, the order of the positions; unused ones are H or OH. Bridge positions count the residues as written; N and C are the ends. Side chains are listed from the residue outwards. Ends that are not written are not given here. * marks the point of attachment. C20 diacid = O=C(O)CCCCCCCCCCCCCCCCCCC(=O)*; γGlu = O=C(O)[C@H](CCC(=O)[*:2])N[*:1]; AEEA = NCCOCCOCC(=O)O
# T1: human amylin 3(a) receptor (human calcitonin receptor co-expressed with RAMP-3) (human, UniProt P30988 25-474; O60896 24-148, limits assumed)
# T1 sequence (looked up) 1: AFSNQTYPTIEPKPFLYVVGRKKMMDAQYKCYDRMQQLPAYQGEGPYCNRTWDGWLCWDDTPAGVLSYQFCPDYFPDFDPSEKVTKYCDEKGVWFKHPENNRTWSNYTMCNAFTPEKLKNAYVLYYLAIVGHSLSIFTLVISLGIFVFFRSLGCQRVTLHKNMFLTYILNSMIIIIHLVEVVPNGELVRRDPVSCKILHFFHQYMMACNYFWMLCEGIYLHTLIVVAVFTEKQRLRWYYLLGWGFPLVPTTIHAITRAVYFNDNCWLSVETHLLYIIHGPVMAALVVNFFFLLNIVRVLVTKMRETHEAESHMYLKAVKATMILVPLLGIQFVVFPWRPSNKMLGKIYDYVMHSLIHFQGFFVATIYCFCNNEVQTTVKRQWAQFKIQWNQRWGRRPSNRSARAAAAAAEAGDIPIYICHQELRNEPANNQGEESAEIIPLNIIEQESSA
# T1 sequence (looked up) 2: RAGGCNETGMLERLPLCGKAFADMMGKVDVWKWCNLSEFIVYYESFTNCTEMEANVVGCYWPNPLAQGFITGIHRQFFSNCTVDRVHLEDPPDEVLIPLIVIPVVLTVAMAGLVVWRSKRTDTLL
# T2: human calcitonin receptor (human, UniProt P30988 25-474)
# T2 sequence (looked up): T1 sequence (looked up) 1
# B1: N^-1-[(4S)-4-carboxy-4-(19-carboxynonadecanoylamino)butanoyl]-Gly[Arg1,Arg17,Pro21,Pro27,His35]-h-amylin (peptide)
# peptide: {C20 diacid-γGlu}-GRCNTATCATQRLANFLRHSSPNFGAIPSSTNVGSHTY-NH2
# modifications: disulfide 3-8
# SMILES: CC[C@H](C)[C@H](NC(=O)[C@H](C)NC(=O)CNC(=O)[C@H](Cc1ccccc1)NC(=O)[C@H](CC(N)=O)NC(=O)[C@@H]1CCCN1C(=O)[C@H](CO)NC(=O)[C@H](CO)NC(=O)[C@H](Cc1c[nH]cn1)NC(=O)[C@H](CCCNC(=N)N)NC(=O)[C@H](CC(C)C)NC(=O)[C@H](Cc1ccccc1)NC(=O)[C@H](CC(N)=O)NC(=O)[C@H](C)NC(=O)[C@H](CC(C)C)NC(=O)[C@H](CCCNC(=N)N)NC(=O)[C@H](CCC(N)=O)NC(=O)[C@@H](NC(=O)[C@H](C)NC(=O)[C@@H]1CSSC[C@H](NC(=O)[C@H](CCCNC(=N)N)NC(=O)CNC(=O)CC[C@H](NC(=O)CCCCCCCCCCCCCCCCCCC(=O)O)C(=O)O)C(=O)N[C@@H](CC(N)=O)C(=O)N[C@@H]([C@@H](C)O)C(=O)N[C@@H](C)C(=O)N[C@@H]([C@@H](C)O)C(=O)N1)[C@@H](C)O)C(=O)N1CCC[C@H]1C(=O)N[C@@H](CO)C(=O)N[C@@H](CO)C(=O)N[C@H](C(=O)N[C@@H](CC(N)=O)C(=O)N[C@H](C(=O)NCC(=O)N[C@@H](CO)C(=O)N[C@@H](Cc1c[nH]cn1)C(=O)N[C@H](C(=O)N[C@@H](Cc1ccc(O)cc1)C(N)=O)[C@@H](C)O)C(C)C)[C@@H](C)O
# notes: h-amylin derivative, N-terminally extended by one residue; disulfide bridge and C-terminal amide as told for human amylin; also called compound 47
# B2: N^ε1-[2-[2-[2-[[(4S)-4-carboxy-4-(19-carboxynonadecanoylamino)butanoyl]amino]ethoxy]ethoxy]acetyl]-[Arg17,Pro21,Pro27,Pro29,Pro31]-h-amylin (peptide)
# peptide: K([AEEA-γGlu-C20 diacid])CNTATCATQRLANFLRHSSPNFGAIPSPTPVGSNTY-NH2
# modifications: disulfide 2-7; N-terminus assumed
# SMILES: CC[C@H](C)[C@H](NC(=O)[C@H](C)NC(=O)CNC(=O)[C@H](Cc1ccccc1)NC(=O)[C@H](CC(N)=O)NC(=O)[C@@H]1CCCN1C(=O)[C@H](CO)NC(=O)[C@H](CO)NC(=O)[C@H](Cc1c[nH]cn1)NC(=O)[C@H](CCCNC(=N)N)NC(=O)[C@H](CC(C)C)NC(=O)[C@H](Cc1ccccc1)NC(=O)[C@H](CC(N)=O)NC(=O)[C@H](C)NC(=O)[C@H](CC(C)C)NC(=O)[C@H](CCCNC(=N)N)NC(=O)[C@H](CCC(N)=O)NC(=O)[C@@H](NC(=O)[C@H](C)NC(=O)[C@@H]1CSSC[C@H](NC(=O)[C@@H](N)CCCCNC(=O)COCCOCCNC(=O)CC[C@H](NC(=O)CCCCCCCCCCCCCCCCCCC(=O)O)C(=O)O)C(=O)N[C@@H](CC(N)=O)C(=O)N[C@@H]([C@@H](C)O)C(=O)N[C@@H](C)C(=O)N[C@@H]([C@@H](C)O)C(=O)N1)[C@@H](C)O)C(=O)N1CCC[C@H]1C(=O)N[C@@H](CO)C(=O)N1CCC[C@H]1C(=O)N[C@H](C(=O)N1CCC[C@H]1C(=O)N[C@H](C(=O)NCC(=O)N[C@@H](CO)C(=O)N[C@@H](CC(N)=O)C(=O)N[C@H](C(=O)N[C@@H](Cc1ccc(O)cc1)C(N)=O)[C@@H](C)O)C(C)C)[C@@H](C)O
# notes: h-amylin derivative; disulfide bridge and C-terminal amide as told for human amylin; also called compound 54
# B3: N^ε1-[2-[2-[2-[[(4S)-4-carboxy-4-(19-carboxynonadecanoylamino)butanoyl]amino]ethoxy]ethoxy]acetyl]-[Arg17,Pro21,Pro27,Pro31,His35]-h-amylin (peptide)
# peptide: K([AEEA-γGlu-C20 diacid])CNTATCATQRLANFLRHSSPNFGAIPSSTPVGSHTY-NH2
# modifications: disulfide 2-7; N-terminus assumed
# SMILES: CC[C@H](C)[C@H](NC(=O)[C@H](C)NC(=O)CNC(=O)[C@H](Cc1ccccc1)NC(=O)[C@H](CC(N)=O)NC(=O)[C@@H]1CCCN1C(=O)[C@H](CO)NC(=O)[C@H](CO)NC(=O)[C@H](Cc1c[nH]cn1)NC(=O)[C@H](CCCNC(=N)N)NC(=O)[C@H](CC(C)C)NC(=O)[C@H](Cc1ccccc1)NC(=O)[C@H](CC(N)=O)NC(=O)[C@H](C)NC(=O)[C@H](CC(C)C)NC(=O)[C@H](CCCNC(=N)N)NC(=O)[C@H](CCC(N)=O)NC(=O)[C@@H](NC(=O)[C@H](C)NC(=O)[C@@H]1CSSC[C@H](NC(=O)[C@@H](N)CCCCNC(=O)COCCOCCNC(=O)CC[C@H](NC(=O)CCCCCCCCCCCCCCCCCCC(=O)O)C(=O)O)C(=O)N[C@@H](CC(N)=O)C(=O)N[C@@H]([C@@H](C)O)C(=O)N[C@@H](C)C(=O)N[C@@H]([C@@H](C)O)C(=O)N1)[C@@H](C)O)C(=O)N1CCC[C@H]1C(=O)N[C@@H](CO)C(=O)N[C@@H](CO)C(=O)N[C@H](C(=O)N1CCC[C@H]1C(=O)N[C@H](C(=O)NCC(=O)N[C@@H](CO)C(=O)N[C@@H](Cc1c[nH]cn1)C(=O)N[C@H](C(=O)N[C@@H](Cc1ccc(O)cc1)C(N)=O)[C@@H](C)O)C(C)C)[C@@H](C)O
# notes: h-amylin derivative; disulfide bridge and C-terminal amide as told for human amylin; also called compound 57
# B4: N^ε1-[2-[2-[2-[[(4S)-4-carboxy-4-(19-carboxynonadecanoylamino)butanoyl]amino]ethoxy]ethoxy]acetyl]-[Arg17,Pro21,Pro27,Pro29,Pro34]-h-amylin (peptide)
# peptide: K([AEEA-γGlu-C20 diacid])CNTATCATQRLANFLRHSSPNFGAIPSPTNVGPNTY-NH2
# modifications: disulfide 2-7; N-terminus assumed
# SMILES: CC[C@H](C)[C@H](NC(=O)[C@H](C)NC(=O)CNC(=O)[C@H](Cc1ccccc1)NC(=O)[C@H](CC(N)=O)NC(=O)[C@@H]1CCCN1C(=O)[C@H](CO)NC(=O)[C@H](CO)NC(=O)[C@H](Cc1c[nH]cn1)NC(=O)[C@H](CCCNC(=N)N)NC(=O)[C@H](CC(C)C)NC(=O)[C@H](Cc1ccccc1)NC(=O)[C@H](CC(N)=O)NC(=O)[C@H](C)NC(=O)[C@H](CC(C)C)NC(=O)[C@H](CCCNC(=N)N)NC(=O)[C@H](CCC(N)=O)NC(=O)[C@@H](NC(=O)[C@H](C)NC(=O)[C@@H]1CSSC[C@H](NC(=O)[C@@H](N)CCCCNC(=O)COCCOCCNC(=O)CC[C@H](NC(=O)CCCCCCCCCCCCCCCCCCC(=O)O)C(=O)O)C(=O)N[C@@H](CC(N)=O)C(=O)N[C@@H]([C@@H](C)O)C(=O)N[C@@H](C)C(=O)N[C@@H]([C@@H](C)O)C(=O)N1)[C@@H](C)O)C(=O)N1CCC[C@H]1C(=O)N[C@@H](CO)C(=O)N1CCC[C@H]1C(=O)N[C@H](C(=O)N[C@@H](CC(N)=O)C(=O)N[C@H](C(=O)NCC(=O)N1CCC[C@H]1C(=O)N[C@@H](CC(N)=O)C(=O)N[C@H](C(=O)N[C@@H](Cc1ccc(O)cc1)C(N)=O)[C@@H](C)O)C(C)C)[C@@H](C)O
# notes: h-amylin derivative; disulfide bridge and C-terminal amide as told for human amylin; also called compound 56
# B5: N^ε1-[2-[2-[2-[[(4S)-4-carboxy-4-(19-carboxynonadecanoylamino)butanoyl]amino]ethoxy]ethoxy]acetyl]-[Arg17,Pro21,Pro27,Pro34,His35]-h-amylin (peptide)
# peptide: K([AEEA-γGlu-C20 diacid])CNTATCATQRLANFLRHSSPNFGAIPSSTNVGPHTY-NH2
# modifications: disulfide 2-7; N-terminus assumed
# SMILES: CC[C@H](C)[C@H](NC(=O)[C@H](C)NC(=O)CNC(=O)[C@H](Cc1ccccc1)NC(=O)[C@H](CC(N)=O)NC(=O)[C@@H]1CCCN1C(=O)[C@H](CO)NC(=O)[C@H](CO)NC(=O)[C@H](Cc1c[nH]cn1)NC(=O)[C@H](CCCNC(=N)N)NC(=O)[C@H](CC(C)C)NC(=O)[C@H](Cc1ccccc1)NC(=O)[C@H](CC(N)=O)NC(=O)[C@H](C)NC(=O)[C@H](CC(C)C)NC(=O)[C@H](CCCNC(=N)N)NC(=O)[C@H](CCC(N)=O)NC(=O)[C@@H](NC(=O)[C@H](C)NC(=O)[C@@H]1CSSC[C@H](NC(=O)[C@@H](N)CCCCNC(=O)COCCOCCNC(=O)CC[C@H](NC(=O)CCCCCCCCCCCCCCCCCCC(=O)O)C(=O)O)C(=O)N[C@@H](CC(N)=O)C(=O)N[C@@H]([C@@H](C)O)C(=O)N[C@@H](C)C(=O)N[C@@H]([C@@H](C)O)C(=O)N1)[C@@H](C)O)C(=O)N1CCC[C@H]1C(=O)N[C@@H](CO)C(=O)N[C@@H](CO)C(=O)N[C@H](C(=O)N[C@@H](CC(N)=O)C(=O)N[C@H](C(=O)NCC(=O)N1CCC[C@H]1C(=O)N[C@@H](Cc1c[nH]cn1)C(=O)N[C@H](C(=O)N[C@@H](Cc1ccc(O)cc1)C(N)=O)[C@@H](C)O)C(C)C)[C@@H](C)O
# notes: h-amylin derivative; disulfide bridge and C-terminal amide as told for human amylin; also called compound 58
# B6: N^ε1-[(4S)-4-carboxy-4-(19-carboxynonadecanoylamino)butanoyl]-[Glu14,Arg17,Pro21,Pro27,Arg35]-h-amylin (peptide)
# peptide: K([γGlu-C20 diacid])CNTATCATQRLAEFLRHSSPNFGAIPSSTNVGSRTY-NH2
# modifications: disulfide 2-7; N-terminus assumed
# SMILES: CC[C@H](C)[C@H](NC(=O)[C@H](C)NC(=O)CNC(=O)[C@H](Cc1ccccc1)NC(=O)[C@H](CC(N)=O)NC(=O)[C@@H]1CCCN1C(=O)[C@H](CO)NC(=O)[C@H](CO)NC(=O)[C@H](Cc1c[nH]cn1)NC(=O)[C@H](CCCNC(=N)N)NC(=O)[C@H](CC(C)C)NC(=O)[C@H](Cc1ccccc1)NC(=O)[C@H](CCC(=O)O)NC(=O)[C@H](C)NC(=O)[C@H](CC(C)C)NC(=O)[C@H](CCCNC(=N)N)NC(=O)[C@H](CCC(N)=O)NC(=O)[C@@H](NC(=O)[C@H](C)NC(=O)[C@@H]1CSSC[C@H](NC(=O)[C@@H](N)CCCCNC(=O)CC[C@H](NC(=O)CCCCCCCCCCCCCCCCCCC(=O)O)C(=O)O)C(=O)N[C@@H](CC(N)=O)C(=O)N[C@@H]([C@@H](C)O)C(=O)N[C@@H](C)C(=O)N[C@@H]([C@@H](C)O)C(=O)N1)[C@@H](C)O)C(=O)N1CCC[C@H]1C(=O)N[C@@H](CO)C(=O)N[C@@H](CO)C(=O)N[C@H](C(=O)N[C@@H](CC(N)=O)C(=O)N[C@H](C(=O)NCC(=O)N[C@@H](CO)C(=O)N[C@@H](CCCNC(=N)N)C(=O)N[C@H](C(=O)N[C@@H](Cc1ccc(O)cc1)C(N)=O)[C@@H](C)O)C(C)C)[C@@H](C)O
# notes: h-amylin derivative; disulfide bridge and C-terminal amide as told for human amylin; also called compound 51
# Biological target: T1, human amylin 3(a) receptor (human …)
# Assay: cell-based or functional assay
Binder,Ratio hCT/hAmylin funct.,hAmylin-R funct. EC50 [nM]
B1,6,–
B2,9.6,–
B3,–,0.089
B4,5,0.102
B5,–,0.047
B6,14,–

# Biological target: T2, human calcitonin receptor
# Assay: cell-based or functional assay
row,Binder,hCTR funct. EC50 [nM]
1,B1,1.32
2,B2,0.987
3,B3,3.12
4,B4,0.506
5,B5,1.03
6,B6,5.22
